Data taken from IntAct's records for PubMed 17690245.

Assays:
[1] = target: ccnt1_human CCNT1 (UniProt O60563)
[2] = target: cdk9_human CDK9 (UniProt P50750)

effect of a mutation on the interaction [1]: disrupting interaction
effect of a mutation on the interaction [2]: disrupting interaction
Substance: Bromodomain-containing protein 4 (Homo sapiens) (from UniProt O60885-1) R1337P
